T1: human TGF-beta 3 (RDI, Cat # RDI-1036/CF) (human, UniProt P10600 301-412)
T1 construct: Bought recombinant protein; also called TGF-β3; TGF-p3
T1 sequence (looked up): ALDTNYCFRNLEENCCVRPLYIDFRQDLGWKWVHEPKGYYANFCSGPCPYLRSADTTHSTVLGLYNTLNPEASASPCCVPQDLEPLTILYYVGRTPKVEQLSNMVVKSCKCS


Columns and labels:
[1] = molecular target: T1, human TGF-beta 3 (RDI, Cat # …); experiment: ratio of Biacore Kd for TGF-β3 to Kd for TGF-β1
Protocol: (§1) Affinities of binding composition mAbs for TGF-p3 are determined using BIAcore methods. All measurements are performed at room temperature. Samples are dissolved in HBS-EP buffer (150 mM sodium chloride, 3 mM EDTA, 0.01% (w/v) surfactant P-20, and 10 mM HEPES, pH7.4). Recombinant Protein A is immobilized on four flow cells of a CM4 sensor chip at a level of 400-450 response units (RUs) using an amine coupling kit. Binding is evaluated over multiple analytical cycles. Each cycle is performed at a flow rate of 100 μL/minute consisting of the following steps: injection of 15 μL of an antibody binding composition at 0.5 μg/mL, injection of 250 μL of TGF-β3 (starting at 5 nM and using two-fold serial dilutions to 0.13 nM for each cycle, with two injections for each concentration) followed by a short (5 minutes) delay for dissociation, and regeneration using two injections of 50VL of 10 mM glycine hydrochloride, pH1.5.
(§2) Affinities are determined based upon the equilibrium signal as reached at varying TGF-β3 concentrations by measuring the average signal during the last 10 seconds of the TGF-β3 injections, and then fitting the resulting signals at all of the TGF-β3 concentrations to a simple binding equilibrium model in SCRUBBER (Center for Biomolecular Interaction Analysis, Univ. of Utah). Model data determined for tested human mab composition of the invention of Kd and specificity calculated by dividing the Kd for TGF-β3 binding by the Kd for TGF-β1 binding (herein) is shown below in Table 5.

[2] = molecular target: T2, human TGF-beta 1 (R&D Systems, Cat # 240-B/CF) (human, UniProt P01137 279-390); experiment: cell-based or functional assay
T2 sequence (P01137 279-390 limits assumed): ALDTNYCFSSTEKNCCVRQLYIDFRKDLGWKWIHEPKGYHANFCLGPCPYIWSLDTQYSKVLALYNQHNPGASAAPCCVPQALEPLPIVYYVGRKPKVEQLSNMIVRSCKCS

[3] = molecular target: T1, human TGF-beta 3 (RDI, Cat # …); experiment: Biacore SPR, mAb captured on Protein A, 5 nM ligand injected; stoichiometry from captured signals
Protocol: (§3) BIAcore methods are used to determine the ability of invention mAb compositions to bind other entities, specifically the latent form of TGF-beta 1 or TGF-beta 3. All measurements are performed at room temperature. Samples are dissolved in HBS-EP buffer (150 mM sodium chloride, 3 mM EDTA, 0.01% (w/v) surfactant P-20, and 10 mM HEPES, pH7.4). Recombinant Protein A is immobilized on all four flow cells of a CM4 sensor chip at a level of 400-450 response units (RUs) using an amine coupling kit.
(§4) Binding is evaluated using multiple analytical cycles. Each cycle is performed at a flow rate of 100 μL/minute consisting of the following steps: injection of 15 μL of an antibody binding composition at 1 μg/mL, injection of 250 μL of either 5 nM TGF-beta 1, 5 nM latent TGF-beta 1, or 5 nM TGF-beta 3 followed by a short delay (5 min) for dissociation, and regeneration using two injections of 50 μL of 10 mM glycine hydrochloride, pH1.5. The amount of signal after capturing first the Mab, and then the ligand, are determined using the instrument control software. Since the signal is proportional to the mass of protein captured, the stoichiometry of the captured ligand is readily calculable (Table 4).

latent TGF-beta 1 = molecular target: T3, latent TGF-beta 1 (UniProt P01137 30-390, limits assumed); experiment: as above
T3 construct: Latent complex (pro-peptide with mature TGF-beta 1); also called Latent TGF-β1; latent form of TGF-beta 1
T3 sequence (P01137 30-390 limits assumed): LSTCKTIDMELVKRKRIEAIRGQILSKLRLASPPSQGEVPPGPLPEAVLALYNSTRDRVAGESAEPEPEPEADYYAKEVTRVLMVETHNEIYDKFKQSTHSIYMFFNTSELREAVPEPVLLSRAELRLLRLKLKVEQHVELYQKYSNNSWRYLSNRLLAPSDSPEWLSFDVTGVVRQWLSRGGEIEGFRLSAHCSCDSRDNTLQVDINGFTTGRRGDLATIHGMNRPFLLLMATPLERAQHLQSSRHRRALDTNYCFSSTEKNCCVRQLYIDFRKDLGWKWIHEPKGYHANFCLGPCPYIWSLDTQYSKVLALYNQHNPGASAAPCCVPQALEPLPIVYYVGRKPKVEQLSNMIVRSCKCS
Protocol: as §3, §4

[4] = molecular target: T2, human TGF-beta 1 (R&D Systems, Cat # …); experiment: as above
Protocol: as §3, §4

[5] = molecular target: T1, human TGF-beta 3 (RDI, Cat # …); experiment: Biacore SPR, equilibrium fit, mAb captured on Protein A, TGF-β3 injected
Protocol: as §1, §2

[6] = molecular target: T2, human TGF-beta 1 (R&D Systems, Cat # …); experiment: Biacore SPR, mAb captured on Protein A, TGF-beta 1 injected
Protocol: (§5) Alternate methods of measuring kinetic constants are known, for example: affinity of a binding composition for human TGF-beta 1 (R&D Systems, Cat #240-B/CF), TGF-beta 2 (RDI, Cat # RDI-1035) and TGF-beta 3 (RDI, Cat # RDI-1036/CF) is measured using a BlAcore® 2000 instrument. The BIAcore® utilizes the optical properties of surface plasmon resonance to detect alteration in protein concentration of interacting molecules within a dextran biosensor matrix. Except as noted, all reagents and materials are purchased from BIAcore® AB (Upsala, Sweden). All measurements are performed at room temperature. Samples are dissolved in HBS-EP buffer (150 mM sodium chloride, 3 mM EDTA, 0.01% (w/v) surfactant P-20, and 10 mM HEPES, pH7.4). Recombinant Protein A is immobilized on all four flow cells of a CM4 sensor chip at a level of 400-450 response units (RUs) using an amine coupling kit.
(§6) Binding is evaluated using multiple analytical cycles. Each cycle is performed at a flow rate of 50 μL/minute and consists of the following steps: injection of 12 μL of an antibody binding composition at 0.5 μg/mL, injection of 250 μL of TGF-beta 1 (starting at 5 nM and using two-fold serial dilutions to 0.13 nM for each cycle, with two injections for each concentration) followed by either a short (5 minutes) or long (120 minutes) delay for dissociation, and regeneration using two injections of 50VL of 10 mM glycine hydrochloride, pH1.5. Association and dissociation rates for each cycle are determined by fitting of the biosensor data using to a simple association model using ClampXP (Center for Biomolecular Interaction Analysis, Univ. of Utah) to extract the kₒₙ and koff rate constants; the equilibrium binding constant Kd is calculated using the relationship Kd=koff/kₒₙ. Model data for invention compositions are in Table 3 shown below.

[7] = molecular target: T2, human TGF-beta 1 (R&D Systems, Cat # …); experiment: Biacore SPR, calculated koff/kon
Protocol: as §5, §6

[8] = molecular target: T2, human TGF-beta 1 (R&D Systems, Cat # …); experiment: KinExA 3000, equilibrium, Fab in solution
Protocol: (§7) A KinExA 3000 instrument (Sapidyne Inst. Inc.) is used to measure binding kinetics. Briefly, an antigen is covalently coupled to alzactone beads and the binding of a free Fab binding composition of the invention to the beads is detected on the instrument. […] After the incubation, free Fab in each equilibrated sample is determined on the KinExA 3000 according to the manufacturer's instructions. Kd values are determined using KinExA 3000 software.

[9] = molecular target: T2, human TGF-beta 1 (R&D Systems, Cat # …); experiment: calculated from KinExA Kd and kon
Protocol: as §7
(§8) To measure kₒₙ, individual Fabs at 2 nM are mixed with 0-240 nM of antigen using the injection method according to the manufacturer's instructions, and the unbound Fab is detected. The resulting data is used to calculate the kₒₙ with KinExA 3000 software. The koff is calculated by using the formula Kd=koff/kₒₙ.

[10] = molecular target: T2, human TGF-beta 1 (R&D Systems, Cat # …); experiment: KinExA 3000, Fab in solution, antigen on beads
Protocol: as §7, §8

Row | Binder | Specificity (Kd, β3/Kd, β1) [1] [fold] | Fold Improvement in IC50 relative to mAb2471 (HT-2 cell proliferation assay) [2] [fold] | Stoichiometry of ligand binding [3] | Stoichiometry of ligand binding (latent TGF-beta 1) | Stoichiometry of ligand binding [4] | Kd [5] [pM] | koff [6] [s⁻¹] | kon [6] [M⁻¹ s⁻¹] | Kd [7] [pM] | Kd [8] [pM] | koff [9] [s⁻¹] | kon [10] [M⁻¹ s⁻¹]
1 | mAb 21D1 (antibody, human IgG4 S228P, kappa, V domains shown, Full-length IgG4 antibody; also called LA307-21D1) VH: QVQLVQSGAEVKKPGASVKVSCKASGYTFTDYNIHWVRQAPGQGLEWMGYIYPYDGETGYNQKFKSRVTMTTDTSTSTAYMELRSLRSDDTAVYYCARGYRWFAYWGQGTLVTVSS VL: DIQMTQSPSSLSASVGDRVTITCRASSSVPYMHWFQQKPGKAPKSLIYATSNPAYGVPSRFSGSGSGTDFTLTISSLQPEDFATYYCQQWDLNPPAFGQGTKLEIKR | 9800 | 107 | 0.16 | 0.05 | 1.29 | 4900 | < 6e-06 | 1.3e+07 | < 0.5 |  |  | 
2 | Fab DM4 (Fab, V domains shown, Fab with human constant regions (kappa light chain)) VH: QVQLVQSGAEVKKPGASVKVSCKASGYDFTDYNIHWVRQAPGQGLEWMGYIYPYDGETGYNQKFKSRVTMTTDTSTSTAYMELRSLRSDDTAVYYCARGYRWLAYWGQGTLVTVSS VL: DIQMTQSPSSLSASVGDRVTITCRASSSVSYMHWYQQKPGKAPKPLIYATSNLAYGVPSRFSGSGSGTDFTLTISSLQPEDFATYYCQQWDLNPPAFGQGTKLEIK |  |  |  |  |  |  |  |  |  | 1.2 | 5.1e-06 | 4.2e+06
3 | Fab 21D1 (Fab, V domains shown, Fab with human constant regions (kappa light chain) from M13 expression vectors) VH: QVQLVQSGAEVKKPGASVKVSCKASGYTFTDYNIHWVRQAPGQGLEWMGYIYPYDGETGYNQKFKSRVTMTTDTSTSTAYMELRSLRSDDTAVYYCARGYRWFAYWGQGTLVTVSS VL: DIQMTQSPSSLSASVGDRVTITCRASSSVPYMHWFQQKPGKAPKSLIYATSNPAYGVPSRFSGSGSGTDFTLTISSLQPEDFATYYCQQWDLNPPAFGQGTKLEIK |  |  |  |  |  |  |  |  |  | 0.9 | 3.4e-06 | 4e+06

Other lines, results leading:

Row | Specificity (Kd, β3/Kd, β1) [1] [fold] | Fold Improvement in IC50 relative to mAb2471 (HT-2 cell proliferation assay) [2] [fold] | Stoichiometry of ligand binding [3] | Stoichiometry of ligand binding (latent TGF-beta 1) | Stoichiometry of ligand binding [4] | Kd [5] [pM] | koff [6] [s⁻¹] | kon [6] [M⁻¹ s⁻¹] | Kd [7] [pM] | Kd [8] [pM] | koff [9] [s⁻¹] | kon [10] [M⁻¹ s⁻¹] | Binder
4 |  |  |  |  |  |  |  |  |  | 0.5 | 2.3e-06 | 4.5e+06 | Fab DM7 (Fab, V domains shown, Fab with human constant regions (kappa light chain)) VH: QVQLVQSGAEVKKPGASVKVSCKASGYDFTDYNMHWVRQAPGQGLEWMGYIYPYDGETGYNQKFKSRVTMTTDTSTSTAYMELRSLRSDDTAVYYCARGYRWLYYWGQGTLVTVSS VL: DIQMTQSPSSLSASVGDRVTITCRASSSVSYMHWYQQKPGKAPKPLIYATSNLAKGVPSRFSGSGSGTDFTLTISSLQPEDFATYYCQQWDLNPPAFGQGTKLEIK
5 | 1050 | 234 | 1.26 | 0.07 | 1.63 | 660 | 1e-05 | 1.9e+07 | 0.8 |  |  |  | mAb 23A3 (antibody, IgG4, V domains shown) VH: QVQLVQSGAEVKKPGASVKVSCKASGYDFTDYNMVWVRQAPGQGLEWMGSIYPYDGETGYNQKFKSRVTMTTDTSTSTAYMELRSLRSDDTAVYYCARGYRAFEYWGQGTLVTVSS VL: DIQMTQSPSSLSASVGDRVTITCRASSSVPYMHWYQQKPGKAPKLLIYATSNPAYGVPSRFSGSGSGTDFTLTISSLQPEDFATYYCQQWDLNPPAFGQGTKLEIK
6 | 621 | 391 |  | 0.03 | 1.55 | 530 | 1.4e-05 | 1.6e+07 | 0.9 |  |  |  | mAb DM4 (antibody, human IgG4 S228P, kappa, V domains shown, Full-length IgG4 antibody; also called LA307-DM4) VH: QVQLVQSGAEVKKPGASVKVSCKASGYDFTDYNIHWVRQAPGQGLEWMGYIYPYDGETGYNQKFKSRVTMTTDTSTSTAYMELRSLRSDDTAVYYCARGYRWLAYWGQGTLVTVSS VL: DIQMTQSPSSLSASVGDRVTITCRASSSVSYMHWYQQKPGKAPKPLIYATSNLAYGVPSRFSGSGSGTDFTLTISSLQPEDFATYYCQQWDLNPPAFGQGTKLEIKR
7 |  |  |  |  |  |  |  |  |  | 4 | 1.9e-05 | 4.8e+06 | Fab 23A3 (Fab, V domains shown, Fab with human constant regions (kappa light chain)) VH: QVQLVQSGAEVKKPGASVKVSCKASGYDFTDYNMVWVRQAPGQGLEWMGSIYPYDGETGYNQKFKSRVTMTTDTSTSTAYMELRSLRSDDTAVYYCARGYRAFEYWGQGTLVTVSS VL: DIQMTQSPSSLSASVGDRVTITCRASSSVPYMHWYQQKPGKAPKLLIYATSNPAYGVPSRFSGSGSGTDFTLTISSLQPEDFATYYCQQWDLNPPAFGQGTKLEIK

— patent US20080050375A1 (Eli Lilly, published 2008)
